The chains are these.
B1: full-length GTP-bound Rab6a/Q72L with N-terminal GST tag [human] / BicD2-CTD (C-terminal cargo-binding domain of human Bicaudal D2, residues 715-804) [human] (parent)
chain 1: YENEKAMVTETMMKLRNELKALKEDAATFSSLRAMFATRCDEYITQLDEMQRQLAAAEDEKKTLNSLLRMAIQQKLALTQRLELLELDHE
chain 2: MSTGGDFGNPLRKFKLVFLGEQSVGKTSLITRFMYDSFDNTYQATIGIDFLSKTMYLEDRTVRLQLWDTAGLERFRSLIPSYIRDSTVAVVVYDITNVNSFQQTTKWIDDVRTERGSDVIIMLVGNKTDLADKRQVSIEEGERKAKELNVMFIETSAKAGYNVKQLFRRVAAALPGMESTQDRSREDMIDIKLEKPQEQPVSEGGCSC

Variants of B1 are the subject of this assay. The assay can be described thus: GST pull-down, SDS-PAGE band quantification. Conditions: with BicD2-CTD (C-terminal cargo-binding domain of human Bicaudal D2, residues 715-804) [human]; parent: 1; read off a plot.
chain 2 T45A: the ratio to parent is 0.01.
Regarding chain 2 T69A, the ratio to parent is 0.07.
Take chain 2 Q22A: the ratio to parent was 0.97.
Consider chain 2 W67A, for which the ratio to parent came to 0.09.
Turning to chain 2 F38A, the ratio to parent is 0.01.
As for chain 2 S23A, the ratio to parent was found to be 0.96.
